B1: 1503_H05 (PG16) (antibody, V domains shown)
VH: QEKLVESGGGVVQPGGSLRLSCLASGFTFHKYGMHWVRQAPGKGLEWVALISDDGMRKYHSDSMWGRVTISRDNSKNTLYLQFSSLKVEDTAMFFCAREAGGPIWHDDVKYYDFNDGYYNYHYMDVWGKGTIVTVSS
VL: QSALTQPASVSGSPGQTITISCNGTRSDVGGFDSVSWYQQSPGKAPKVMVFDVSHRPSGISNRFSGSKSGNTASLTISGLHIEDEGDYFCSSLTDRSHRIFGGGTKVTVLG
B2: 1489_I13 (PG16) (antibody, V domains shown)
VH: B1 VH with K3Q, V5L, D62N, I132T
VL: B1 VL with R26S
B3: 1456_A12 (PG16) (antibody, V domains shown)
VH: B1 VH with Q1H, K3Q, S7A, K87R, I132K
VL: B1 VL with R26S, S27R, I60M, V107L
B4: 1469_M23 (PG16) (antibody, V domains shown)
VH: B1 VH with I132T
VL: B1 VL with K44R, V107L

Numbering of substitutions follows the chain as printed.

The first test deals with 92RW020 pseudovirus Env (HIV-1). Kind of test: cell-based or functional assay.
As to B1, the IC50 (ug/ml), pseudovirus neutralization, TZM-bl assay worked out at 0.02 µg/mL.

For B2, the IC50 (ug/ml), pseudovirus neutralization, TZM-bl assay worked out at 0.03 µg/mL.

As to B3, the IC50 (ug/ml), pseudovirus neutralization, TZM-bl assay amounted to 0.05 µg/mL.

For the molecule B4, the IC50 (ug/ml), pseudovirus neutralization, TZM-bl assay amounted to 0.05 µg/mL.

The target in the next test is JR-CSF (Y318A) pseudovirus Env (HIV-1) (UniProt P20871). Nature of the test: cell-based or functional assay.
B1: the IC50 (ug/ml), pseudovirus neutralization, TZM-bl assay is more than 1 µg/mL.

B2 displayed an IC50 (ug/ml), pseudovirus neutralization, TZM-bl assay of more than 1 µg/mL.

In turn, B3 had an IC50 (ug/ml), pseudovirus neutralization, TZM-bl assay of more than 1 µg/mL.

In the case of B4, the IC50 (ug/ml), pseudovirus neutralization, TZM-bl assay was more than 1 µg/mL.

The target in a further test is JR-CSF pseudovirus (HIV-1 Env on the virions) (HIV-1) (UniProt P20871). Kind of test: cell-based or functional assay.
B1 came in with an IC50 (ug/ml), pseudovirus neutralization, TZM-bl assay of 0.001 µg/mL.

For B2, the IC50 (ug/ml), pseudovirus neutralization, TZM-bl assay was 0.002 µg/mL.

With B3, the IC50 (ug/ml), pseudovirus neutralization, TZM-bl assay was determined as 0.001 µg/mL.

The molecule B4 yielded an IC50 (ug/ml), pseudovirus neutralization, TZM-bl assay of 0.002 µg/mL.

In another test the target is JR-CSF (I309A) pseudovirus Env (HIV-1) (UniProt P20871). Kind of test: cell-based or functional assay.
In turn, B1 registered an IC50 (ug/ml), pseudovirus neutralization, TZM-bl assay of more than 1 µg/mL.

B2 yielded an IC50 (ug/ml), pseudovirus neutralization, TZM-bl assay of more than 1 µg/mL.

Consider B3, for which the IC50 (ug/ml), pseudovirus neutralization, TZM-bl assay is more than 1 µg/mL.

B4 yielded an IC50 (ug/ml), pseudovirus neutralization, TZM-bl assay of more than 1 µg/mL.

For a further test, the target named is JR-FL (E168K) pseudovirus Env (HIV-1). Nature of the test: cell-based or functional assay.
Take B1: the IC50 (ug/ml), pseudovirus neutralization, TZM-bl assay stood at 0.002 µg/mL.

Molecule B2 showed an IC50 (ug/ml), pseudovirus neutralization, TZM-bl assay of 0.005 µg/mL.

On to B3, for which the IC50 (ug/ml), pseudovirus neutralization, TZM-bl assay stood at 0.003 µg/mL.

Regarding B4, the IC50 (ug/ml), pseudovirus neutralization, TZM-bl assay was determined as 0.005 µg/mL.

In a further test the target is ADA pseudovirus Env (HIV-1). Nature of the test: cell-based or functional assay.
The molecule B1 showed an IC50 (ug/ml), pseudovirus neutralization, TZM-bl assay of 0.003 µg/mL.

B2 gave an IC50 (ug/ml), pseudovirus neutralization, TZM-bl assay of 0.008 µg/mL.

The molecule B3 returned an IC50 (ug/ml), pseudovirus neutralization, TZM-bl assay of 0.005 µg/mL.

B4 showed an IC50 (ug/ml), pseudovirus neutralization, TZM-bl assay of 0.005 µg/mL.

The values above are taken from patent US20110044994A1.
